This assay addresses T1, Sin3A, endogenous in Neuro2A cells (UniProt Q60520 1-1274, limits assumed).
T1 sequence (looked up): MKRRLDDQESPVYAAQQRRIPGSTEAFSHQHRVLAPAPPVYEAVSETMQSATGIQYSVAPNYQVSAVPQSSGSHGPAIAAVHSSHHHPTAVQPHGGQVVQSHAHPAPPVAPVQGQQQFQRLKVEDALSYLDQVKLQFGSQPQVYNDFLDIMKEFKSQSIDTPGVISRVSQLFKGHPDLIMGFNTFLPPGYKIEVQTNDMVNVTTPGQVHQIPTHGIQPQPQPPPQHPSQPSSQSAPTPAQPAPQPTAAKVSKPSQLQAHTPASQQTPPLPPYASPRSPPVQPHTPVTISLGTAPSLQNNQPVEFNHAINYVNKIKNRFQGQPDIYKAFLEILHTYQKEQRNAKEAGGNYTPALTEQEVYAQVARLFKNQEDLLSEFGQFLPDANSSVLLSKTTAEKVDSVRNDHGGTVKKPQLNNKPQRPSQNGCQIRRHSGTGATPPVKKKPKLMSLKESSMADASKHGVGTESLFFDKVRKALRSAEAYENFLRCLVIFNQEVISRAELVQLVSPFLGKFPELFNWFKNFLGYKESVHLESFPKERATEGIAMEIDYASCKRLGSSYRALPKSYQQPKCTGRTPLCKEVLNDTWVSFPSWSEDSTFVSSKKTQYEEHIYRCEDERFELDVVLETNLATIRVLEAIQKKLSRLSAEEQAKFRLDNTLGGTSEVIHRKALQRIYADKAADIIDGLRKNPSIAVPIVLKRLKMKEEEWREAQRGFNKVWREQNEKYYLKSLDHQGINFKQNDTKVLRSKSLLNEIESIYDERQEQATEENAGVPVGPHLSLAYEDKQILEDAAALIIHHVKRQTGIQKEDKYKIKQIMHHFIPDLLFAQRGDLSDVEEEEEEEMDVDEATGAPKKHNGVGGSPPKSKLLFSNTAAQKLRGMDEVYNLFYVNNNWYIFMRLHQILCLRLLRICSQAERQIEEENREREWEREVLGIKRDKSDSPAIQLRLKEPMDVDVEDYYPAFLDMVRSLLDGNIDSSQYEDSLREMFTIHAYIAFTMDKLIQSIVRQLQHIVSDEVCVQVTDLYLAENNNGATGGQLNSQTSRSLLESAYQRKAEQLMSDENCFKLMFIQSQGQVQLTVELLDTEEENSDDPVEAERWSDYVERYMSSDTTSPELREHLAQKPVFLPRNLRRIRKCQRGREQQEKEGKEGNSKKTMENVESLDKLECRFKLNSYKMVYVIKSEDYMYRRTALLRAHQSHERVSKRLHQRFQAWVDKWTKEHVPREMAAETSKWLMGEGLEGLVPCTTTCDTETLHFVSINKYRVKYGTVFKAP
The assay is described as follows: co-immunoprecipitation (anti-Flag) from transfected N2A cells, western blot. Here is the method: Brain tissues or cell pellets were lysed in 50 mM Tris-HCl (pH8.0), 150 mM NaCl, 1 mM EDTA, 1% NP-40, and complete protease inhibitor cocktail (Roche) with 20 strokes using the Dounce tight homogenizer. After centrifugation at 10000×g twice for 10 min, supernatants were subjected to co-immunoprecipitation or western blot analysis (Bio-rad). Two micrograms of anti-HDAC2 antibody (ab12169) or 15 μL of anti-Flag M2 affinity gels (Sigma) were used for immunoprecipitations. The antibodies used for immunoblotting were anti-HDAC2 (1 μg/mL, ab12169), anti-Sp3 (1 μg/mL, sc-644 X), anti-Sin3A (1 μg/mL, Abcam; ab3479), and […] (1:500, Sigma; F2043).
If the divergent C-terminus of HDAC2 alone is capable of binding to Sp3, the HDAC2-Sp3 interaction may potentially be inhibited through over-expression of this domain. To test this, the C-terminal domain of either HDAC2 (termed 2C) or HDAC1 (termed 1C) fused with mCherry, or mCherry alone, was transfected into neuronal N2A cells. Using co-IP experiments it was shown that 2C, but not 1C or mCherry alone, robustly bound to endogenous Sp3 (FIG. 6A). Importantly, binding of 2C to Sin3A, a well characterized partner of the HDAC1/2 complexes that controls cell cycle progression, was not detected.
In general terms: In western blotting, separated proteins are transferred to a membrane and probed.

From patent US20190015473A1 (MIT, published 2019) come the findings set out here.

B1: C-terminal domain of HDAC2 (termed 2C) fused with mCherry, flag-tagged (other, UniProt Q92769 390-488, looked up)
chain: VHEDSGDEDGEDPDKRISIRASDKRIACDEEFSDSEDEGEGGRRNVADHKKGAKKARIEEDKKETEDKKTDVKEEDKSKDNSGEKTDTKGTKSEQLSNP
notes: The part order follows the printed name 'mCherry-2C'; the Flag position is unknown; also called mCherry-2C; HDAC2 C-terminal fragment (2C); not shown: Flag tag; mCherry (engineered red fluorescent protein)
As to B1, the binding result is recorded as “no binding”.
